Test results taken from article PMC5146997.

How the values were obtained:
[1] = target: EphA2-Fc (entire ectodomain of EphA2 fused to the Fc fragment of IgG) (UniProt P29317); assay: ELISA
[2] = target: EphA2 at the surface of PC3 cells (endogenous) (human (endogenous in PC3)) (UniProt P29317); assay: in-cell binding assay
Chain of EphA2 at the surface of PC3 cells (endogenous) (human (endogenous in PC3)) (P29317 24-976): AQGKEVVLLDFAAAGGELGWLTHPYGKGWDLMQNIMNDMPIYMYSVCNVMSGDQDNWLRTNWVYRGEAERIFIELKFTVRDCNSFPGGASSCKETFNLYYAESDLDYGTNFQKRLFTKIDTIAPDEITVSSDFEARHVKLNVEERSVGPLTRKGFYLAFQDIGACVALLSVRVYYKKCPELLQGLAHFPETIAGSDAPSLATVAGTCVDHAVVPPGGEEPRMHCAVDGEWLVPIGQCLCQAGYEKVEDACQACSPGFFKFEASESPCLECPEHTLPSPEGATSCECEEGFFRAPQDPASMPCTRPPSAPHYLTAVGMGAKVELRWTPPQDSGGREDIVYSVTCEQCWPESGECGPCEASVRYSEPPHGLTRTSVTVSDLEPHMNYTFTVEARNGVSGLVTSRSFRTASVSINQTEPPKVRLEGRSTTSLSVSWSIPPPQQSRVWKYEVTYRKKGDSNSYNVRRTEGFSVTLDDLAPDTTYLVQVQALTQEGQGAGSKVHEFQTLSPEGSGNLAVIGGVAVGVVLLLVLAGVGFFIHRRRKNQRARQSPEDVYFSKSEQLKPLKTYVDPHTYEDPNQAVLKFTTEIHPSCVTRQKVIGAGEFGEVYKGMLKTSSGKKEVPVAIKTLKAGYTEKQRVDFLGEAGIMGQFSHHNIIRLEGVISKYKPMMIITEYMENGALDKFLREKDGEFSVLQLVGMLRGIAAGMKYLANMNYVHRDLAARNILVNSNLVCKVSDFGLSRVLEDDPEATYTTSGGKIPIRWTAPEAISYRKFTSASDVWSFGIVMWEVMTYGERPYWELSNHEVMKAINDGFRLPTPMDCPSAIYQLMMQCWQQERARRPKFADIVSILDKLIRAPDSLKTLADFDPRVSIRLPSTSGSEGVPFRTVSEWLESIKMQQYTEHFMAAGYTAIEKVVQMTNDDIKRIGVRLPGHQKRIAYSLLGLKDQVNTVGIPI

Chain of EphA2-Fc (entire ectodomain of EphA2 fused to the Fc fragment of IgG) (P29317 24-537): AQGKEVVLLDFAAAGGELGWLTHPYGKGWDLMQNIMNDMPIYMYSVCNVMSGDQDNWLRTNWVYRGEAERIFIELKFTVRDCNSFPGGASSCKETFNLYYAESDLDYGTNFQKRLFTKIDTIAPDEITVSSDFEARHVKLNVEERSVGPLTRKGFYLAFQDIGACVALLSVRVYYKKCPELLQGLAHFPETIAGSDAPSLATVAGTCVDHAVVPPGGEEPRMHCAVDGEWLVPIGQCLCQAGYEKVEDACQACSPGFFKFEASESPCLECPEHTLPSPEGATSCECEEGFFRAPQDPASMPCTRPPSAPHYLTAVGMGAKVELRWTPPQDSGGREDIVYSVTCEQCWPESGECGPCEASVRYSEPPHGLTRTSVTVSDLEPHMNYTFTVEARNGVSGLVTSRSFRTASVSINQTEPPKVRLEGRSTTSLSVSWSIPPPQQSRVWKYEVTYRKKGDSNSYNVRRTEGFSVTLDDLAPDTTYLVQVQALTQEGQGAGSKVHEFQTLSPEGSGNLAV

With “EphrinA1-Fc (from UniProt P20827 19-182) (Fc fusion)” as the substance, how does the Kd [1] read?
Its Kd is 17 nM.

What about the IC50 [2] of the same substance?
The IC50 was 400 nM.
